Measurements from publication PMC9818519.
pKd: −log10 of the molar value.

biological target: His-HAT1 (Homo sapiens) (UniProt O14929); assay: ELONA; details: ELONA: PBS + 1 mM MgCl2 (selection buffer), 37 °C, 1 h; 100 ng HAT1/well adsorbed; 0.2% BSA block; aptamers heated 95 °C 10 min then ice 10 min
Sequence of UniProt O14929 (O14929 whole entry): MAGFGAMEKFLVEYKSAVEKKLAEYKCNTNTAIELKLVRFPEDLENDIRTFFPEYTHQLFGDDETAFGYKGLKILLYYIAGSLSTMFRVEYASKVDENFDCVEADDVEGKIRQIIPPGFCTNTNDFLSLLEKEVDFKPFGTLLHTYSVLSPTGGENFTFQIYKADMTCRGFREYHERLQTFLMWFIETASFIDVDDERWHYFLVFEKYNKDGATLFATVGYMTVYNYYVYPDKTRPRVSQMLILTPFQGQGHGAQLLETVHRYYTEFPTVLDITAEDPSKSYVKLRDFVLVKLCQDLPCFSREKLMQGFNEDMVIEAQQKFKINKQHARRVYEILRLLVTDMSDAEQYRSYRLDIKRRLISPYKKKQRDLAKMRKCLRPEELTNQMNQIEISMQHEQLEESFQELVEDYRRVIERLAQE

Sequence	pKd
GCGGATGAAGACTGGTGTCGAGGGGGGGGCGGGCGGGTGGGTTGGCTCTTCATGCCTGTGCCCTAAATACGAGCAAC [apHAT63 (63F)]	7.42
GCGGATGAAGACTGGTGTCGAGGGGGGGGCGGGCGGGTGGGTTGGCTCTTCATGCCTGTGCCC [apHAT63T]	7.36
GTTGCTCGTATTTAGGGCGGGGGGGCGGGGGAGGAGGTGGCGGGAATATCCATTGTCTACACCAGTCTTCATCCGC [apHAT610 (610R)]	7.55
